Experiments:
[1] = molecular target: the molecule itself; assay: EPR-DEER; MTSL-labelled single-cysteine Smc, 5 µM, mixed with ScpA and ScpB (similar trends without ScpAB); apo, or with 1 mM ATP and 10 µM dsDNA40; 50 mM Tris-HCl pH 7.5, 50 mM NaCl, 2 mM MgCl2, 40 % ethylene glycol-d6, 90 % deuterium oxide; shock-frozen, DEER traces at 50 K, Q band; spin-spin distances between the two Smc of a dimer
[2] = molecular target: the molecule itself; assay: cross-linking; purified single-cysteine Smc, 30 µM dimers with 600 µM M3M in 50 mM Tris-HCl pH 7.5, 200 mM NaCl, 4 °C overnight; non-reducing SDS-PAGE, Coomassie; reversed by up to 10 mM DTT

B1: Smc^3S(R643C, E1118Q) (natural protein, B. subtilis, UniProt P51834 1-1186, looked up)
chain: MFLKRLDVIGFKSFAERISVDFVKGVTAVVGPNGSGKSNITDAIRWVLGEQSARSLRGGKMEDIIFAGSDSRKRLNLAEVTLTLDNDDHFLPIDFHEVSVTRRVYRSGESEFLINNQPSRLKDIIDLFMDSGLGKEAFSIISQGKVEEILSSKAEDRRSIFEEAAGVLKYKTRKKKAENKLFETQDNLNRVEDILHELEGQVEPLKIQASIAKDYLEKKKELEHVEIALTAYDIEELHGKWSTLKEKVQMAKEEELAESSAISAKEAKIEDTRDKIQALDESVDELQQVLLVTSEELEKLEGRKEVLKERKKNAVQNQEQLEEAIVQFQQKETVLKEELSKQEAVFETLQAEVKQLRAQVKEKQQALSLHNENVEEKIEQLKSDYFELLNSQASIRNELQLLDDQMSQSAVTLQRLADNNEKHLQERHDISARKAASETEFARIEQEIHSQVGAYRDMQTKYEQKKRQYEKNESALYQAYQYVQQARSKKDMLETMQGDFSGFYQGVKEVLKAKERLGGIRGAVLELISTEQKYETAIEIALGASAQHVVTDDEQSARKAIQYLKQNSFGRATFLPLSVIRDRQLQSRDAETAARHSSFLGVASELVTFDPAYRSVIQNLLGTVLITEDLKGANELAKLLGHCYRIVTLEGDVVNPGGSMTGGAVKKKNNSLLGRSRELEDVTKRLAEMEEKTALLEQEVKTLKHSIQDMEKKLADLRETGEGLRLKQQDVKGQLYELQVAEKNINTHLELYDQEKSALSESDEERKVRKRKLEEELSAVSEKMKQLEEDIDRLTKQKQTQSSTKESLSNELTELKIAAAKKEQASKGEEDNLARLKKELTETELALKEAKEDLSFLTSEMSSSTSGEEKLEEAAKHKLNDKTKTIELIALRRDQRIKLQHGLDTYERELKEMKRLYKQKTTLLKDEEVKLGRMEVELDNLLQYLREEYSLSFEGAKEKYQLETDPEEARKRVKLIKLAIEELGTVNLGSIDEFERVNERYKFLSEQKEDLTEAKNTLFQVIEEMDEEMTKRFNDTFVQIRSHFDQVFRSLFGGGRAELRLTDPNDLLHSGVEIIAQPPGKKLQNLNLLSGGERALTAIALLFSILKVRPVPFCVLDQVEAALDEANVFRFAQYLKKYSSDTQFIVITHRKGTMEEADVLYGVTMQESGVSKVISVKLEETKEFVQ
modifications: MTSL spin label on the engineered cysteine 643
notes: Smc, Bacillus subtilis (Bsu), cysteine-lite Smc^3S background with R643C and Walker B E1118Q; also called Smc^3S(EQ) single cysteine mutant; source: E. coli BL21-Gold (DE3), purified (HiTrap Blue, Heparin, gel filtration)
Q: Does B1 bind [1]?
A: binds

B2: Smc^3SV(Y944C) (natural protein, B. subtilis, UniProt P51834 1-1186, looked up)
chain: MFLKRLDVIGFKSFAERISVDFVKGVTAVVGPNGSGKSNITDAIRWVLGEQSARSLRGGKMEDIIFAGSDSRKRLNLAEVTLTLDNDDHFLPIDFHEVSVTRRVYRSGESEFLINNQPSRLKDIIDLFMDSGLGKEAFSIISQGKVEEILSSKAEDRRSIFEEAAGVLKYKTRKKKAENKLFETQDNLNRVEDILHELEGQVEPLKIQASIAKDYLEKKKELEHVEIALTAYDIEELHGKWSTLKEKVQMAKEEELAESSAISAKEAKIEDTRDKIQALDESVDELQQVLLVTSEELEKLEGRKEVLKERKKNAVQNQEQLEEAIVQFQQKETVLKEELSKQEAVFETLQAEVKQLRAQVKEKQQALSLHNENVEEKIEQLKSDYFELLNSQASIRNELQLLDDQMSQSAVTLQRLADNNEKHLQERHDISARKAASETEFARIEQEIHSQVGAYRDMQTKYEQKKRQYEKNESALYQAYQYVQQARSKKDMLETMQGDFSGFYQGVKEVLKAKERLGGIRGAVLELISTEQKYETAIEIALGASAQHVVTDDEQSARKAIQYLKQNSFGRATFLPLSVIRDRQLQSRDAETAARHSSFLGVASELVTFDPAYRSVIQNLLGTVLITEDLKGANELAKLLGHRYRIVTLEGDVVNPGGSMTGGAVKKKNNSLLGRSRELEDVTKRLAEMEEKTALLEQEVKTLKHSIQDMEKKLADLRETGEGLRLKQQDVKGQLYELQVAEKNINTHLELYDQEKSALSESDEERKVRKRKLEEELSAVSEKMKQLEEDIDRLTKQKQTQSSTKESLSNELTELKIAAAKKEQASKGEEDNLARLKKELTETELALKEAKEDLSFLTSEMSSSTSGEEKLEEAAKHKLNDKTKTIELIALRRDQRIKLQHGLDTYERELKEMKRLYKQKTTLLKDEEVKLGRMEVELDNLLQCLREEYSLSFEGAKEKYQLETDPEEARKRVKLIKLAIEELGTVNLGSIDEFERVNERYKFLSEQKEDLTEAKNTLFQVIEEMDEEMTKRFNDTFVQIRSHFDQVFRSLFGGGRAELRLTDPNDLLHSGVEIIAQPPGKKLQNLNLLSGGERALTAIALLFSILKVRPVPFVVLDEVEAALDEANVFRFAQYLKKYSSDTQFIVITHRKGTMEEADVLYGVTMQESGVSKVISVKLEETKEFVQ
modifications: engineered cysteine 944 cross-linked with M3M
notes: Smc, Bacillus subtilis (Bsu), cys-free Smc^3SV background with Y944C; also called Y944C at contact 3^C; source: E. coli BL21-Gold (DE3), purified (HiTrap Blue, Heparin, gel filtration without reducing agent)
Q: Does B2 bind [2]?
A: binds

B3: Smc^3SV(D193C) (natural protein, B. subtilis, UniProt P51834 1-1186, looked up)
chain: MFLKRLDVIGFKSFAERISVDFVKGVTAVVGPNGSGKSNITDAIRWVLGEQSARSLRGGKMEDIIFAGSDSRKRLNLAEVTLTLDNDDHFLPIDFHEVSVTRRVYRSGESEFLINNQPSRLKDIIDLFMDSGLGKEAFSIISQGKVEEILSSKAEDRRSIFEEAAGVLKYKTRKKKAENKLFETQDNLNRVECILHELEGQVEPLKIQASIAKDYLEKKKELEHVEIALTAYDIEELHGKWSTLKEKVQMAKEEELAESSAISAKEAKIEDTRDKIQALDESVDELQQVLLVTSEELEKLEGRKEVLKERKKNAVQNQEQLEEAIVQFQQKETVLKEELSKQEAVFETLQAEVKQLRAQVKEKQQALSLHNENVEEKIEQLKSDYFELLNSQASIRNELQLLDDQMSQSAVTLQRLADNNEKHLQERHDISARKAASETEFARIEQEIHSQVGAYRDMQTKYEQKKRQYEKNESALYQAYQYVQQARSKKDMLETMQGDFSGFYQGVKEVLKAKERLGGIRGAVLELISTEQKYETAIEIALGASAQHVVTDDEQSARKAIQYLKQNSFGRATFLPLSVIRDRQLQSRDAETAARHSSFLGVASELVTFDPAYRSVIQNLLGTVLITEDLKGANELAKLLGHRYRIVTLEGDVVNPGGSMTGGAVKKKNNSLLGRSRELEDVTKRLAEMEEKTALLEQEVKTLKHSIQDMEKKLADLRETGEGLRLKQQDVKGQLYELQVAEKNINTHLELYDQEKSALSESDEERKVRKRKLEEELSAVSEKMKQLEEDIDRLTKQKQTQSSTKESLSNELTELKIAAAKKEQASKGEEDNLARLKKELTETELALKEAKEDLSFLTSEMSSSTSGEEKLEEAAKHKLNDKTKTIELIALRRDQRIKLQHGLDTYERELKEMKRLYKQKTTLLKDEEVKLGRMEVELDNLLQYLREEYSLSFEGAKEKYQLETDPEEARKRVKLIKLAIEELGTVNLGSIDEFERVNERYKFLSEQKEDLTEAKNTLFQVIEEMDEEMTKRFNDTFVQIRSHFDQVFRSLFGGGRAELRLTDPNDLLHSGVEIIAQPPGKKLQNLNLLSGGERALTAIALLFSILKVRPVPFVVLDEVEAALDEANVFRFAQYLKKYSSDTQFIVITHRKGTMEEADVLYGVTMQESGVSKVISVKLEETKEFVQ
modifications: engineered cysteine 193 cross-linked with M3M
notes: Smc, Bacillus subtilis (Bsu), cys-free Smc^3SV background with D193C; also called D193C at contact 1^N; source: E. coli BL21-Gold (DE3), purified (HiTrap Blue, Heparin, gel filtration without reducing agent)
Q: Does B3 bind [2]?
A: binds

B4: Smc^3SV(Q320C) (natural protein, B. subtilis, UniProt P51834 1-1186, looked up)
chain: MFLKRLDVIGFKSFAERISVDFVKGVTAVVGPNGSGKSNITDAIRWVLGEQSARSLRGGKMEDIIFAGSDSRKRLNLAEVTLTLDNDDHFLPIDFHEVSVTRRVYRSGESEFLINNQPSRLKDIIDLFMDSGLGKEAFSIISQGKVEEILSSKAEDRRSIFEEAAGVLKYKTRKKKAENKLFETQDNLNRVEDILHELEGQVEPLKIQASIAKDYLEKKKELEHVEIALTAYDIEELHGKWSTLKEKVQMAKEEELAESSAISAKEAKIEDTRDKIQALDESVDELQQVLLVTSEELEKLEGRKEVLKERKKNAVQNQECLEEAIVQFQQKETVLKEELSKQEAVFETLQAEVKQLRAQVKEKQQALSLHNENVEEKIEQLKSDYFELLNSQASIRNELQLLDDQMSQSAVTLQRLADNNEKHLQERHDISARKAASETEFARIEQEIHSQVGAYRDMQTKYEQKKRQYEKNESALYQAYQYVQQARSKKDMLETMQGDFSGFYQGVKEVLKAKERLGGIRGAVLELISTEQKYETAIEIALGASAQHVVTDDEQSARKAIQYLKQNSFGRATFLPLSVIRDRQLQSRDAETAARHSSFLGVASELVTFDPAYRSVIQNLLGTVLITEDLKGANELAKLLGHRYRIVTLEGDVVNPGGSMTGGAVKKKNNSLLGRSRELEDVTKRLAEMEEKTALLEQEVKTLKHSIQDMEKKLADLRETGEGLRLKQQDVKGQLYELQVAEKNINTHLELYDQEKSALSESDEERKVRKRKLEEELSAVSEKMKQLEEDIDRLTKQKQTQSSTKESLSNELTELKIAAAKKEQASKGEEDNLARLKKELTETELALKEAKEDLSFLTSEMSSSTSGEEKLEEAAKHKLNDKTKTIELIALRRDQRIKLQHGLDTYERELKEMKRLYKQKTTLLKDEEVKLGRMEVELDNLLQYLREEYSLSFEGAKEKYQLETDPEEARKRVKLIKLAIEELGTVNLGSIDEFERVNERYKFLSEQKEDLTEAKNTLFQVIEEMDEEMTKRFNDTFVQIRSHFDQVFRSLFGGGRAELRLTDPNDLLHSGVEIIAQPPGKKLQNLNLLSGGERALTAIALLFSILKVRPVPFVVLDEVEAALDEANVFRFAQYLKKYSSDTQFIVITHRKGTMEEADVLYGVTMQESGVSKVISVKLEETKEFVQ
modifications: engineered cysteine 320 cross-linked with M3M
notes: Smc, Bacillus subtilis (Bsu), cys-free Smc^3SV background with Q320C; also called Q320C at contact 4^N; source: E. coli BL21-Gold (DE3), purified (HiTrap Blue, Heparin, gel filtration without reducing agent)
Q: Does B4 bind [2]?
A: binds

B5: Smc^3SV(A715C) (natural protein, B. subtilis, UniProt P51834 1-1186, looked up)
chain: MFLKRLDVIGFKSFAERISVDFVKGVTAVVGPNGSGKSNITDAIRWVLGEQSARSLRGGKMEDIIFAGSDSRKRLNLAEVTLTLDNDDHFLPIDFHEVSVTRRVYRSGESEFLINNQPSRLKDIIDLFMDSGLGKEAFSIISQGKVEEILSSKAEDRRSIFEEAAGVLKYKTRKKKAENKLFETQDNLNRVEDILHELEGQVEPLKIQASIAKDYLEKKKELEHVEIALTAYDIEELHGKWSTLKEKVQMAKEEELAESSAISAKEAKIEDTRDKIQALDESVDELQQVLLVTSEELEKLEGRKEVLKERKKNAVQNQEQLEEAIVQFQQKETVLKEELSKQEAVFETLQAEVKQLRAQVKEKQQALSLHNENVEEKIEQLKSDYFELLNSQASIRNELQLLDDQMSQSAVTLQRLADNNEKHLQERHDISARKAASETEFARIEQEIHSQVGAYRDMQTKYEQKKRQYEKNESALYQAYQYVQQARSKKDMLETMQGDFSGFYQGVKEVLKAKERLGGIRGAVLELISTEQKYETAIEIALGASAQHVVTDDEQSARKAIQYLKQNSFGRATFLPLSVIRDRQLQSRDAETAARHSSFLGVASELVTFDPAYRSVIQNLLGTVLITEDLKGANELAKLLGHRYRIVTLEGDVVNPGGSMTGGAVKKKNNSLLGRSRELEDVTKRLAEMEEKTALLEQEVKTLKHSIQDMEKKLCDLRETGEGLRLKQQDVKGQLYELQVAEKNINTHLELYDQEKSALSESDEERKVRKRKLEEELSAVSEKMKQLEEDIDRLTKQKQTQSSTKESLSNELTELKIAAAKKEQASKGEEDNLARLKKELTETELALKEAKEDLSFLTSEMSSSTSGEEKLEEAAKHKLNDKTKTIELIALRRDQRIKLQHGLDTYERELKEMKRLYKQKTTLLKDEEVKLGRMEVELDNLLQYLREEYSLSFEGAKEKYQLETDPEEARKRVKLIKLAIEELGTVNLGSIDEFERVNERYKFLSEQKEDLTEAKNTLFQVIEEMDEEMTKRFNDTFVQIRSHFDQVFRSLFGGGRAELRLTDPNDLLHSGVEIIAQPPGKKLQNLNLLSGGERALTAIALLFSILKVRPVPFVVLDEVEAALDEANVFRFAQYLKKYSSDTQFIVITHRKGTMEEADVLYGVTMQESGVSKVISVKLEETKEFVQ
modifications: engineered cysteine 715 cross-linked with M3M
notes: Smc, Bacillus subtilis (Bsu), cys-free Smc^3SV background with A715C; also called A715C at contact 7^C; source: E. coli BL21-Gold (DE3), purified (HiTrap Blue, Heparin, gel filtration without reducing agent)
Q: Does B5 bind [2]?
A: binds

— paper doi:10.1101/2021.01.21.427566, “Gradual opening of Smc arms in prokaryotic condensin” (bioRxiv, 2021)
